How the values were obtained:
[1] = biological target: abnormal isoform prion protein (PrP^Sc) in the brain of Chandler prion-infected mice (Mus musculus, brain, Chandler prion …, UniProt P04925); test: immunostaining of cells or tissue; details: one partner purified
[2] = biological target: T1, cellular prion protein (PrP^C) expressed in the brain of mock-infected mice (Mus musculus, mouse strain not shown, UniProt P04925); test: immunostaining of cells or tissue; details: one partner purified
T1 construct: source: endogenous, frozen brain sections of mock-infected mice

[3] = biological target: T2, recombinant mouse PrP (Mus musculus, UniProt P04925); test: ELISA
T2 construct: also called rMoPrP
T2 sequence (P04925 23-230): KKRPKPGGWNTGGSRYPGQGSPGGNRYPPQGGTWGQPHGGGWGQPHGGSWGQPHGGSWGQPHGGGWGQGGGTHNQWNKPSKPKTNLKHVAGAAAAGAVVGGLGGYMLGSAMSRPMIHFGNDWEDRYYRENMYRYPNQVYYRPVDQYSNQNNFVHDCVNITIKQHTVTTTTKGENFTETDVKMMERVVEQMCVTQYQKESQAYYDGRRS

Sequence of abnormal isoform prion protein (PrP^Sc) in the brain of Chandler prion-infected mice (P04925 23-230): as above
T1 sequence (P04925 23-230): as above

Binder | binding result [1] | binding result [2] | binding result ([3]; both partners purified) | binding result ([3]; one partner purified)
authentic anti-PrP monoclonal antibody 44B1 (IgG-44B1) (antibody, V domains shown, also called mAb 44B1; source: hybridoma, purified IgG; copies: 2 + 2) VH: DVKLVESGEGLVKPGGSLKLSCAASGITFSRYAMSWVRQTPEKRLEWVAYISSGGDYINYADTVKGRFTISRDNARNTLYLQMSSLKSEDTAMYYCTRVTPYWYFDVWGTGTTVTVSS VL: DIVLTQSPASLGVSLGQRATISCRASESVDSYGNSFMHWYQQKPGQPPKVLIYRASNRESGIPARFSGSGSRTDFTLTINPVEADDVATYYCQQSNEDPYTFGGGTKLEIK | binds | binds | binds | 
recombinant Fab of mAb 44B1 (rFab-44B1) (Fab, V domains shown, source: HEK293T, transfected (IRES plasmid), culture supernatant) VH: DVKLVESGEGLVKPGGSLKLSCAASGITFSRYAMSWVRQTPEKRLEWVAYISSGGDYINYADTVKGRFTISRDNARNTLYLQMSSLKSEDTAMYYCTRVTPYWYFDVWGTGTTVTVSS VL: DIVLTQSPASLGVSLGQRATISCRASESVDSYGNSFMHWYQQKPGQPPKVLIYRASNRESGIPARFSGSGSRTDFTLTINPVEADDVATYYCQQSNEDPYTFGGGTKLEIK |  |  |  | binds

— PMC6553756 (PLoS ONE, 2019)
